Data reported in publication PMC9385847.

Target: endogenous mTOR (mechanistic target of rapamycin) (mouse (endogenous in brain and MEFs)) (UniProt Q9JLN9)
Assay: co-IP; anti-mTOR on Protein G beads; whole brain lysates of wild type or Thorase KO mice in buffer A, 1% Triton X-100, with or without 2 mM ADP, ATP or ATPγS, 4 °C; immunoblot

Substance: endogenous S6K (from UniProt Q8BSK8 1-525) (enzyme)
- percent dissociated from mTOR (Thorase KO brain): 20%
- percent dissociated from mTOR (wild type brain): 80%
